According to patent US8722052B2, “Vaccinia virus protein A46 peptide and use thereof” (priority 2008, dated 2014):
Entries after “also recorded” stand apart in the source; their conditions may differ.

Legend:
TLR4 [1] = assay: LPS-induced TNFα in PMA-differentiated U937 cells, ELISA; assay type: cell-based, human; details: peptide 5 or 20 μM 1 h before 100 ng/ml LPS, 24 h
Protocol: FIGS. 3A and B are bar charts showing the effect of peptides derived from A46 on LPS-induced TNFα in human U937 cells. Cells were differentiated with 200 nM PMA and seeded in 96 well plates (2×10^5 cells/ml) 24 hours before treatment. A46 peptides were added to the cells at a concentration of 5 or 20 μM 1 hour before stimulating with 100 ng/ml LPS. Supernatants were collected 24 hours after stimulation and assayed for TNFα by ELISA. No peptides were added into the control wells (black bars). (A) peptides A461-A467 (SEQ ID NO. 17 to 23). (B) peptides A468-A4614 (SEQ ID NO. 24 to 30) (excluding A4612 SEQ ID NO. 28). Data is representative of at least two experiments each performed in triplicate and is expressed as mean±s.d;
(§1) Cytokine and chemokine production from cells or mouse serum was measured by ELISA using Duoset kits from R&D systems, according to the manufacturer's instructions.
LPS is a component of a cell wall of Gram-negative bacteria which is recognised by a homodimer of TLR4 and signals to NFκB via both a MyD88- and TRIF-dependent pathway (O'Neill and Bowie, 2007). In order to examine the effect of the peptides on TLR4-dependent gene induction in human cells, the human monocytic lymphoma cell line U937 was used. U937 cells were differentiated into macrophages by treatment with 200 nM PMA for 24 hours before any further manipulations. […]

TLR4 [2] = biological target: T1, TLR4 (Mus musculus, UniProt Q9QUK6); assay: LPS-induced TNFα in RAW264.7 cells, ELISA; assay type: cell-based, murine; set-up: endogenous in cells; host or cells: RAW264.7; immortalised murine bone-marrow-derived macrophages
T1 sequence (Q9QUK6 26-835): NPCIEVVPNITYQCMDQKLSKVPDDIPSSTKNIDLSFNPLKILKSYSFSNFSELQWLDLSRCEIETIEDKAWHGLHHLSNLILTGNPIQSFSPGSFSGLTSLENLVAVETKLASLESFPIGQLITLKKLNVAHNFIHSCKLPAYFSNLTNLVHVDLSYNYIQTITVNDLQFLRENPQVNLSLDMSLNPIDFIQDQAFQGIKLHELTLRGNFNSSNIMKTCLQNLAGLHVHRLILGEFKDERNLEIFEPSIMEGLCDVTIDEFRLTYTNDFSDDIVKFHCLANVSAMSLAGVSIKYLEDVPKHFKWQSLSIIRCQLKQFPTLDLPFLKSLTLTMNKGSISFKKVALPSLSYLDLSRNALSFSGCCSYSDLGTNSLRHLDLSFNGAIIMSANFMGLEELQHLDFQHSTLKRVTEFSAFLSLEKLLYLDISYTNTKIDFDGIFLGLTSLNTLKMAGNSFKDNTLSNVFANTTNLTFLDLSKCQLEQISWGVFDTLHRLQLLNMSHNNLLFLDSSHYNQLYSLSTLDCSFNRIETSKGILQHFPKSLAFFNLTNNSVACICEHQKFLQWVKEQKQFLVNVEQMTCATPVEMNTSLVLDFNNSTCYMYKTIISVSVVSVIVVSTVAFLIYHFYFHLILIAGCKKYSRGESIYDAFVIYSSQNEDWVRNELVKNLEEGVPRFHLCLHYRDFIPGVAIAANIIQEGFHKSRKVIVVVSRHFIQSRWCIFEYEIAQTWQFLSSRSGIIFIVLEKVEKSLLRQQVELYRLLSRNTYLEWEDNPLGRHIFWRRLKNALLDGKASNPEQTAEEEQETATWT
T1 sequence (Q9JHF9 19-160 partner): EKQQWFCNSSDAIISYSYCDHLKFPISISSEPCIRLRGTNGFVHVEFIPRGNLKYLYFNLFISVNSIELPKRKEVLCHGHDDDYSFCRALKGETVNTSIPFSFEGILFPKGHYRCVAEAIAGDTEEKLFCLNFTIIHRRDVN
Protocol: FIGS. 5A and B are bar charts showing the dose-dependent inhibitory effect of A464R on LPS-induced TNFα in murine RAW264.7 cells. A464 (SEQ ID NO. 20) was added to the cells at a concentration of 5, 20 or 50 μM 1 hour before stimulating with 100 ng/ml LPS. Supernatant was collected 24 hours after stimulation and assayed for TNFα by ELISA (A) and cells were assayed for viability by the MTT assay (B.). No peptides were added to the control wells (black bars). Data is representative of at least three experiments each performed in triplicate and is expressed as mean±s.d;
FIGS. 6A and B are bar charts showing the effect of peptides derived from A46 on LPS-induced TNFα in murine RAW264.7 cells. A46 peptides were added to the cells at a concentration of 1 or 5 μM 1 hour before stimulating with 10 ng/ml LPS. Supernatants were collected 6 hours after stimulation and assayed for TNFα by ELISA. No peptides were added into the control wells (black bars). (A) peptides A461-A467 (SEQ ID NO. 17 to 23). (B) peptides A468-A4614 (SEQ ID NO. 24 to 30) (excluding A4610 SEQ ID NO. 26 and A4612 SEQ ID NO. 28). Data is representative of at least two experiments each performed in triplicate and is expressed as mean±s.d;
FIGS. 22 A and B are bar charts showing the effect of short A467 and A464 peptides, with 9R on either N- or C-terminus, on LPS- induced TNFα production in murine RAW264.7 cells. Cells were seeded in 96 well plates (1.5×10^5 cells/ml) 24 hours before treatment. Short A467 and short A464 peptides with the 9R delivery sequence on either the C-terminus (sA464C9R) (SEQ ID NO. 56) (A) or the N-terminus (sA464N9R) (SEQ ID NO. 57) (B) were added to the cells at a concentration of 5 or 25 μM 1 hour before stimulating with 10 ng/ml LPS. Normal full length A467 (SEQ ID NO. 23) and A464 (SEQ ID NO. 20) peptides were added at a concentration of 5 μM as positive controls. Supernatants were collected 6 hours after stimulation with the agonist and assayed for TNFα, by ELISA. No peptides were added to the control wells (black bars). Data is representative of at least three experiments each performed in triplicate and is expressed as mean±s.d;
as §1

Chain of TLR4 (O00206 24-839): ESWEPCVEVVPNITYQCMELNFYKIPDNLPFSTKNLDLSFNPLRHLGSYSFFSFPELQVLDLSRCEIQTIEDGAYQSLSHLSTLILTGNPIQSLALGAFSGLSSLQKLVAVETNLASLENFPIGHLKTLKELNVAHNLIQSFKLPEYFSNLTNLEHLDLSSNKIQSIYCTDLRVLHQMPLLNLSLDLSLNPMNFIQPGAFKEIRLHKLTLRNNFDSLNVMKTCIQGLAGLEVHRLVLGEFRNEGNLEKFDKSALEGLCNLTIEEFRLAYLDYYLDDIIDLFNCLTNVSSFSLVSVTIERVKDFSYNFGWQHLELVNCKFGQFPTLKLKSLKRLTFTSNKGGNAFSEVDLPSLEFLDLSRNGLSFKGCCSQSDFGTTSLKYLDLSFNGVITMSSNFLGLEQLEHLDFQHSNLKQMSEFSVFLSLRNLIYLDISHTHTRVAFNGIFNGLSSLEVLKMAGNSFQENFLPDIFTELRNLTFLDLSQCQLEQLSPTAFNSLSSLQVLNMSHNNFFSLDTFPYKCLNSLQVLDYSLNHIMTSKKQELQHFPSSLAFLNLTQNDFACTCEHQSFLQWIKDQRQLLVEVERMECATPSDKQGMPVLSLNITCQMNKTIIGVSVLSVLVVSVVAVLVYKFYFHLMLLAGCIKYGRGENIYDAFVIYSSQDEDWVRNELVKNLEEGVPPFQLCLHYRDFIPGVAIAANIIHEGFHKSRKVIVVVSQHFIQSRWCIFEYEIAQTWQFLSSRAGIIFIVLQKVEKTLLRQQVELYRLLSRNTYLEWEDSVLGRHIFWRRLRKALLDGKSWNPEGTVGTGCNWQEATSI
Chain of TLR4 (Q9Y6Y9 17-160 partner limits assumed): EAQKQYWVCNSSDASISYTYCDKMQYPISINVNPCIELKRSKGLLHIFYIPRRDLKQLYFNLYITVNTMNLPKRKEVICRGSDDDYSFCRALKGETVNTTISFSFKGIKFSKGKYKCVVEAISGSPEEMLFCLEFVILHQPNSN

Sequence: KYSFKLILAEYRRRRRRRRR [Peptide A464]
- inhibition of LPS (TLR4)-induced TNFα production (TLR4 [1]): potently inhibit TLR4-mediated TNFα production; also recorded: very potent inhibitory effect
- inhibition of LPS-induced mTNFα (TLR4 [2]; peptide 1 or 5 μM 1 h before 10 ng/ml LPS, 6 h): inhibited LPS-induced mTNFα at 1 and 5 μM
- inhibition of LPS-induced murine TNFα production (TLR4 [2]; peptide 5, 20 or 50 μM 1 h before 100 ng/ml LPS, 24 h): potently inhibited LPS-induced murine TNFα production in RAW264.7 cells at just 5 μM
